What was measured:
Experiment in all cases: ELISA
Conditions in all cases: both partners purified
[1] = target: T1, Fc fusion of Severe acute respiratory syndrome coronavirus 2 P0DTC2 (SARS‐CoV‐2 Wuhan, UniProt P0DTC2)
T1 construct: also called RBD‐Fc; RBD

[2] = target: full‐length SARS‐CoV‐2 spike protein (1273 amino acids) (SARS-CoV-2 Wuhan, UniProt P0DTC2)
human serum albumin = human serum albumin (Homo sapiens, UniProt P02768)

Measured: binding result

B1: Clostridioides difficile toxin A‐specific A20.1 VHH (VHH)
VHH: QVQLVESGGGLAQAGGSLRLSCAASGRTFSMDPMAWFRQPPGKEREFVAAGSSTGRTTYYADSVKGRFTISRDNAKNTVYLQMNSLKPEDTAVYYCAAAPYGANWYRDEYAYWGQGTQVTVSS
no binding: all assays above
